Entries after “also recorded” stand apart in the source; their conditions may differ.
Assays:
mice = conditions: administration of C75 to mice, reported; cited from earlier work
FAS [1] = target: T1, FAS (Mus musculus, UniProt P19096); assay: FAS enzyme activity in lysates of loaded 3T3-L1 cells (malonyl-CoA consumption); format: cell-based; conditions: C75 25 μM versus AIM 5 μg/mL, schedules (d) and (f)
T1 construct: cell lysates were prepared, and the enzyme activity of FAS was measured; endogenous in cells; host or cells: 3T3-L1 cells (differentiating or differentiated)
T1 sequence (P19096 whole entry): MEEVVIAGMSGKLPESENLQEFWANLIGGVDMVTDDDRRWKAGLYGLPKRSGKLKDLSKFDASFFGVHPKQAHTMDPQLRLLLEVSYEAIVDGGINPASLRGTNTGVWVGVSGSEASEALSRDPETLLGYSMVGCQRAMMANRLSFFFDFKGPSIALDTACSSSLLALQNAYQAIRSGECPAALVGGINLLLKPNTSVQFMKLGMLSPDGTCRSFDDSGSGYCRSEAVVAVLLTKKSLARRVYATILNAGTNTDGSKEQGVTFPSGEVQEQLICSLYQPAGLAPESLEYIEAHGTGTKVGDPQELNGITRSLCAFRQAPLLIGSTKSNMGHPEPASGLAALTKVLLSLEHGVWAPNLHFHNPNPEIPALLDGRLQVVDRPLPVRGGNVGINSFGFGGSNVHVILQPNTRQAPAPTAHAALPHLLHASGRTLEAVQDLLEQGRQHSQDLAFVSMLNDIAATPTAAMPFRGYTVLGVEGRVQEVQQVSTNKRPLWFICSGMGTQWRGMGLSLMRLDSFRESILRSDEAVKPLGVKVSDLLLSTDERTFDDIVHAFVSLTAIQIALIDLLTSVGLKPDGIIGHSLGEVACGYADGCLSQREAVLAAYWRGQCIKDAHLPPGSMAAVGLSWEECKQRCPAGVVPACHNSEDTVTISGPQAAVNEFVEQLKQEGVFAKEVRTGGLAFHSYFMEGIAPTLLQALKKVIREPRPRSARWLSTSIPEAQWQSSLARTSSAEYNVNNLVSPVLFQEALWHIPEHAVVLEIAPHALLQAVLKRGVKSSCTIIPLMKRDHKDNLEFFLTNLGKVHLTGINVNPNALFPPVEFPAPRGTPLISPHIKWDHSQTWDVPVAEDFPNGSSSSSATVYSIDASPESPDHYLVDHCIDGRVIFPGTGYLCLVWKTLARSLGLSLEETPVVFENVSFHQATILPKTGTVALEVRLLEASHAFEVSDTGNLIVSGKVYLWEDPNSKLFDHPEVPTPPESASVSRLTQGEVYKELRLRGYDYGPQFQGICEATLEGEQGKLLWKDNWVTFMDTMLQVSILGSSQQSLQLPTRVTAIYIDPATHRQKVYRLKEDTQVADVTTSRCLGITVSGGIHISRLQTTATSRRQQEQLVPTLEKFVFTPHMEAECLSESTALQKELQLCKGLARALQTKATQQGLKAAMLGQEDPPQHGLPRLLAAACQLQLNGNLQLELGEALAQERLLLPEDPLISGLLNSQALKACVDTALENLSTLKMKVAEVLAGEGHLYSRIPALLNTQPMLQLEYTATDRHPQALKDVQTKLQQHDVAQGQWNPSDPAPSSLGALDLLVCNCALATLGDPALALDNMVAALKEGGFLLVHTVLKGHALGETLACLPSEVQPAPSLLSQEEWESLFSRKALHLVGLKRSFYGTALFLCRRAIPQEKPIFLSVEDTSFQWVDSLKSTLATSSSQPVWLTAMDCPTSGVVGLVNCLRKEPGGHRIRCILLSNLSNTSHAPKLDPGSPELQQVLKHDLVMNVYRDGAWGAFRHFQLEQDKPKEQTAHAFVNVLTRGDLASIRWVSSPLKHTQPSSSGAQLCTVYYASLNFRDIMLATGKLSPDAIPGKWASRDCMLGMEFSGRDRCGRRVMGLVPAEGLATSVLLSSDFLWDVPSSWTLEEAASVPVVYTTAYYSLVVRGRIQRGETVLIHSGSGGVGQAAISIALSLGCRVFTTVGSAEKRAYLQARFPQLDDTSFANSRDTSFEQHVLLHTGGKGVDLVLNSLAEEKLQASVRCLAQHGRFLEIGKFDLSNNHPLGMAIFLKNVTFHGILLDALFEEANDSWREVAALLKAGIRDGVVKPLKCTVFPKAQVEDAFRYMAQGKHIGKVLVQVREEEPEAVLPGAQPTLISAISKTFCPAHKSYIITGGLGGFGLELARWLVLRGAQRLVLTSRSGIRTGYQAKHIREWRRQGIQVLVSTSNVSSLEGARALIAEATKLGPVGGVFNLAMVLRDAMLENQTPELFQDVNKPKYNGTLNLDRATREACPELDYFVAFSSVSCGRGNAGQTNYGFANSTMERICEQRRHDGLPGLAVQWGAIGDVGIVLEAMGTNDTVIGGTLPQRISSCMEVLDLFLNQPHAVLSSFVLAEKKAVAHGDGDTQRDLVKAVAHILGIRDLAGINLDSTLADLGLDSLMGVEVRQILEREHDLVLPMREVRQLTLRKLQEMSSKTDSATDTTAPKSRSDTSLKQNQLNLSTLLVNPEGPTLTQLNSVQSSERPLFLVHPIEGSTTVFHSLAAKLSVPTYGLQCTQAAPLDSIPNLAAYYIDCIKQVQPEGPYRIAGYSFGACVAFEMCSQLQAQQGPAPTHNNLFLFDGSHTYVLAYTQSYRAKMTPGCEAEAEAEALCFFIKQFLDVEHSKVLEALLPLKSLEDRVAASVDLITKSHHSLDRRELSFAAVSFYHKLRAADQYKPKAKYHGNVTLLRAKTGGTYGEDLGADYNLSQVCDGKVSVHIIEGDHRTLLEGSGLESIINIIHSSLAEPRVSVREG
Experimental: Whether AIM affected an enzyme activity of FAS or not was examined.
In addition, as a schedule (f) similar to the above-mentioned schedule (e), AIM was loaded for 4 days (day 8 to day 12) after the 3T3-L1 cells differentiated, subsequently the cells were collected on the 10th day (day 12) after the initiation of the differentiation induction, cell lysates were prepared, and the enzyme activity of FAS was measured. The enzyme activity of FAS was measured based on a consumption amount of malonyl-CoA.
(§1) In addition, using a FAS inhibitor (C75) in place of AIM, the FAS inhibitor at a concentration of 25 μM was loaded according to the schedules (d) and (f), and as was the case with the above-mentioned AIM, the cells were collected on the 2nd day (day 4: schedule (d)) and 10th day (day 12: schedule (f)) after the initiation of the differentiation induction, and the enzyme activity of FAS was measured.
Further, for comparison, the cells cultured without loading AIM in the above-mentioned schedule (a) were also collected at times of the 2nd day (day 4) and 10th day (day 12) after the initiation of the differentiation induction, and the enzyme activity of FAS was measured.
FIG. 11B and FIG. 11C illustrate the results of measuring the FAS enzyme activity (Fatty acid synthase activity) (nmol NADPH/min/mg protein). FIG. 11B illustrates the results obtained on the 2nd day (day 4) after the initiation of the differentiation induction in the case of loading no AIM according to the schedule (a) (None), the case of loading AIM according to the schedule (d) (AIM (5 μg/mL)), and the case of loading the FAS inhibitor according to the schedule (d) (C75 (25 μM)). FIG. 11C illustrates the results obtained on the 10th day (day 12) after the initiation of the differentiation induction in the case of loading no AIM according to the schedule (a) (None), the case of loading AIM according to the schedule (f) (AIM (5 μg/mL)), and the case of loading the FAS inhibitor according to the schedule (f) (C75 (25 μM)).

FAS [2] = target: T2, FAS (Homo sapiens, UniProt P49327); assay: Co-immunoprecipitation of HA-tagged AIM and FLAG-tagged FAS in HEK293T cells; format: binding; conditions: HEK293T cells co-expressing HA-tagged mouse AIM and FLAG-tagged FAS, anti-FLAG or anti-HA antibody
T2 construct: expressed in transfected cells; host or cells: HEK293T
T2 sequence (P49327 whole entry): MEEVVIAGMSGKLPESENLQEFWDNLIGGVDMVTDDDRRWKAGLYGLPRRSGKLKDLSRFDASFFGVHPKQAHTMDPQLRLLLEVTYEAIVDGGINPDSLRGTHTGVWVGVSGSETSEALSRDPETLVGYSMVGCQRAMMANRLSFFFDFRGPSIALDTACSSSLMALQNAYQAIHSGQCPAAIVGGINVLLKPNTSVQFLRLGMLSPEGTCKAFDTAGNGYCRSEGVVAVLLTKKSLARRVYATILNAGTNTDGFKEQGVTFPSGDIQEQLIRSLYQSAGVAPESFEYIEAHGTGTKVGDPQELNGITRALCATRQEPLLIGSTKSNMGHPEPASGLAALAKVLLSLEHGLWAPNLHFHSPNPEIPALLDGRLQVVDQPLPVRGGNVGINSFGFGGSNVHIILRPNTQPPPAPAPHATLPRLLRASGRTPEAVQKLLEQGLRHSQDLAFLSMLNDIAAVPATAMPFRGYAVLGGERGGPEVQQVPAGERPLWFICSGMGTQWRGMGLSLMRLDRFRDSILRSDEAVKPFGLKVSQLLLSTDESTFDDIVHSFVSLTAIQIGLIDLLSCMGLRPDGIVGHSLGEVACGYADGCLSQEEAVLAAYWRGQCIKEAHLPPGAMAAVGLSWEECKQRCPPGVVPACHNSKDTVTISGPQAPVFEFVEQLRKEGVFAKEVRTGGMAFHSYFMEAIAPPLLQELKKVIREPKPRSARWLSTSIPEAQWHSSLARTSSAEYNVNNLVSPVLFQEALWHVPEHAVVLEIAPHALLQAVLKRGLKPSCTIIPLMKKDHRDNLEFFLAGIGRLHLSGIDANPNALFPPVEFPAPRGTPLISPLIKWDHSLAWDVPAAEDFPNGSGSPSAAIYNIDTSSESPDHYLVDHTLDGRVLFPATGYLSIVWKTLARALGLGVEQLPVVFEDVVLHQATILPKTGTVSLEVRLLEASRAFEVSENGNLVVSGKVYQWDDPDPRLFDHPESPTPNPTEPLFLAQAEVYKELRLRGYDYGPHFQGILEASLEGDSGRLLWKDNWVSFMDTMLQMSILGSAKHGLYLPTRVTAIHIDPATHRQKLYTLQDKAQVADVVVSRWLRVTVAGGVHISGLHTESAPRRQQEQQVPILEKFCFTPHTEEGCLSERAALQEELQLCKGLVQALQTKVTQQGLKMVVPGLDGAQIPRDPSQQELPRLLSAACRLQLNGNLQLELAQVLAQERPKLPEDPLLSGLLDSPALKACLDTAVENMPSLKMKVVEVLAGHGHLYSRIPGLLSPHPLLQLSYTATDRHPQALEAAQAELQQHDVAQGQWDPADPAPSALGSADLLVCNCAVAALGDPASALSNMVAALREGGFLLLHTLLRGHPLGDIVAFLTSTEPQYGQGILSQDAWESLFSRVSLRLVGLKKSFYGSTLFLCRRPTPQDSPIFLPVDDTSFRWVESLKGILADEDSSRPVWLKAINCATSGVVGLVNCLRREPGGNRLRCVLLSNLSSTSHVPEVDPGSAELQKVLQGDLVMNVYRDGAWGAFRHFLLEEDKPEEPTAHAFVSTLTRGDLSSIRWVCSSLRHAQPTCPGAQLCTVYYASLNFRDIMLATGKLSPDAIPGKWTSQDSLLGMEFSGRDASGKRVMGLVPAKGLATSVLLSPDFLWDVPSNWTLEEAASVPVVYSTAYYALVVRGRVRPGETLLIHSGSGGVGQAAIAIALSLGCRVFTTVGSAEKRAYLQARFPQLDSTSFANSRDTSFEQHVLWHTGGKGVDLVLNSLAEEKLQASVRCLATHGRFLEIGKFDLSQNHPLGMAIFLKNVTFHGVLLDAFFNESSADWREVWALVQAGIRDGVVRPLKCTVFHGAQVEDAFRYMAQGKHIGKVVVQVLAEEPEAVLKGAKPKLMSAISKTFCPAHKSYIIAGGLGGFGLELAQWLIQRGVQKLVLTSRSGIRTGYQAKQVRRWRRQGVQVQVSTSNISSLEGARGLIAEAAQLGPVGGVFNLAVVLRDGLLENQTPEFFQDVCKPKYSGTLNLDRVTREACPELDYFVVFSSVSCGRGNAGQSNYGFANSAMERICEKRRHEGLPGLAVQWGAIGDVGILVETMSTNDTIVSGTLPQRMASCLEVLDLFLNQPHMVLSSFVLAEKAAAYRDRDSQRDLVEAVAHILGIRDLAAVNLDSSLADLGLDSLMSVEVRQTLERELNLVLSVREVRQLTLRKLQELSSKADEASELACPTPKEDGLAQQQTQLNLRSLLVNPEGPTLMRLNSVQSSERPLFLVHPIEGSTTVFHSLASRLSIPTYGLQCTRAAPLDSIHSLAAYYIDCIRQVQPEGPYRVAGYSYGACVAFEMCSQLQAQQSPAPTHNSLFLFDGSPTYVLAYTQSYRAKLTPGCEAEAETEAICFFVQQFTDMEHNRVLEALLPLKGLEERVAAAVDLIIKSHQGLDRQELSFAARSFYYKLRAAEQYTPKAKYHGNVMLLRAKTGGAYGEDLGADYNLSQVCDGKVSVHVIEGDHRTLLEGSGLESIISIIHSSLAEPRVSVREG
Experimental: Thus, in order to confirm the fact, first, HEK293T cells which co-expressed both AIM (mouse AIM) fused with an HA-tag and FAS fused with a FLAG-tag were produced. Also, the HEK293T cells were collected after being cultured for a predetermined period of time, its cell lysate was prepared, and an immunoprecipitation was performed using an anti-FLAG antibody.
In addition, a co-immunoprecipitation study was performed using HEK293T cells which express both FAS tagged with FLAG and mouse AIM tagged with HA, and an anti-FLAG antibody or an anti-HA antibody.

3T3-L1 preadipocytes = assay: Differentiation of 3T3-L1 preadipocytes into mature adipocytes, oil-red-o staining; format: cell-based, mouse; conditions: mouse AIM and human AIM compared, in vitro
Experimental: In order to examine how AIM produced by the macrophages infiltrating the adipose tissues works on surrounding adipocytes, an experiment in which AIM was loaded during a culture process of differentiating 3T3-L1 preadipocytes into the mature adipocytes was performed.
A recombinant mouse AIM protein and a recombinant human AIM protein were used as AIM. Those recombinant AIM proteins were prepared by culturing human-derived HEK293T cells transfected with a vector expressing mouse AIM or human AIM and isolating and purifying the protein from its culture supernatant. The same recombinant AIM proteins were also used as AIM in other examples shown below. AIM was loaded by adding AIM at a concentration of 5 μg/mL to the culture medium.
Differentiation induction (Induction) of the 3T3-L1 cells was initiated by first culturing the 3T3-L1 cells for 4 days (day −2 to day 2) to proliferate the cells (Cell proliferation) and subsequently culturing the cells in a culture medium containing insulin, dexamethasone (DEX), and isobutylmethylxanthine (IBMX) for 2 days (day 2 to day 4). The differentiation induction was further continued by culturing the cells in a culture medium containing insulin for 2 days (day 4 to day 6).
After the period of the differentiation induction (day 2 to day 6), the culture was continued in a culture medium not containing those differentiation-inducing factors. Then, the cells on the 10th day (day 12) after the initiation of the stimuli for differentiation induction were stained with oil-red-o, and the differentiation of the 3T3-L1 cells to mature adipocytes was observed.
as §1
FIG. 12A and FIG. 12B show the results of staining the cells with oil-red-o and analyzing the gene expression by RT-PCR on the 2nd day (day 4) after the initiation of the differentiation induction in the case of loading no AIM according to the schedule (a) (None), the case of loading AIM according to the schedule (d) (AIM (5 μg/mL)), and the case of loading the FAS inhibitor according to the schedule (d) (C75 (25 μM)), respectively.

[3] = system: human mesenchymal stem cells (HMSCs); assay: Adipogenesis of human mesenchymal stem cells (HMSCs) with rhAIM; format: cell-based
Experimental: In order to confirm that AIM also acts upon adipogenesis in human cells, the differentiation of human mesenchymal stem cells (HMSCs) (Lonza Walkersville Inc., USA) was stimulated in the presence or absence of recombinant human AIM (rhAIM).
That is, HMSCs were cultured in a mesenchymal stem cell basal medium (MSCBM) (Lonza Walkersville Inc.) for 10 days until the cells became confluent. Subsequently, the adipogenesis of the cells was stimulated by culturing the cells in the presence or absence of rhAIM (10 μg/mL) together with human insulin, MCGS, dexamethasone, indomethacin, and IBMX for 3 days (adipogenesis induction) (reference: Janderrova et al., Obes. Res., 11: 65, 2003). After the stimulation, the cells were cultured in MSCBM in which human insulin and MCGS had been added for an additional 10 days. Then, the cells were collected and stained with oil-red-o.
FIG. 36A, FIG. 36B, and FIG. 36C show the results of observing the cells before the stimulation of adipogenesis (Pre-stimulation), after the stimulation in the absence of rhAIM (rhAIM (−)), and after the stimulation in the presence of 10 μg/mL rhAIM (rhAIM (10 μg/mL)) under the phase contrast microscope, respectively.

[4] = system: mature adipocytes (differentiated 3T3-L1 cells); assay: Induction of lipolysis in mature 3T3-L1 adipocytes (lipid droplets, glycerol and free fatty acid efflux); format: cell-based, mouse; conditions: mouse AIM and human AIM compared, same range of concentrations in vitro
Experimental: The effect of AIM on mature adipocytes was examined.
Then, the cells on the 10th day (day 12) after the initiation of the stimuli for differentiation induction were stained with oil-red-o. The number of cells having lipid droplets was counted. Further, the diameter of lipid droplets was measured in the cells having lipid droplets. For comparison, the number of the cells was counted and the diameter of lipid droplets was measured for the cells cultured in the above-mentioned schedules (a) and (d).
Further, the supernatant of the culture medium after the cells were cultured while loading AIM according to the schedule (e) was collected, and amounts of glycerol and free fatty acid (FFA) contained in the supernatant were measured by ELISA. For the comparison, the amounts of glycerol and free fatty acid in the culture supernatant obtained according to the schedule (a) were also measured.
In order to avoid adsorption of free fatty acid to albumin contained in the culture medium, the culture medium supplemented with 10% FBS (fetal bovine serum) was exchanged to a serum-free culture medium on the 10th day (day 12) after the initiation of the differentiation induction, further the cells were cultured in the serum-free culture medium for 6 hours, and subsequently the amounts of glycerol and free fatty acid contained in the supernatant of the serum-free culture medium were measured.
FIG. 7A and FIG. 7B illustrate the evaluation results of the number (per 10^4 μm^2) of cells having lipid droplets (Droplet (+) cells) and the relative diameter of lipid droplets (%) obtained according to the schedules (a), (d), and (e) (Exp. a, d, and e), respectively. The relative diameter of lipid droplets illustrated in FIG. 7B was calculated by defining the diameter of lipid droplets in the cells obtained according to the schedule (a) without AIM loading as 100%. FIG. 8A and FIG. 8B illustrate the concentration of glycerol (Glycerol Efflux, mM) and the concentration of free fatty acid (FFA Efflux, ×10 mM) in the culture medium obtained according to the schedules (a) and (e) (Exp. a and e), respectively.
In addition, FIG. 13A and FIG. 13B illustrate the results of measuring the glycerol concentration (glycerol efflux, mM) and the free fatty acid concentration (FFA efflux, ×10 mM) in the culture medium on the 10th day (day 12) after the initiation of the differentiation induction in the case of loading no AIM according to the schedule (a) (None), the case of loading AIM according to the schedule (f) (AIM), and the case of loading the FAS inhibitor according to the schedule (f) (C75), respectively.

Molecule: C=C1C(=O)OC(CCCCCCCC)C1C(=O)O (stereo not shown) [C75]
- amount of neuropeptide Y (NPY) produced in the hypothalamus (mice): reduces
- appetite (mice): remarkable loss of appetite
- body weight (mice): body weight loss; also recorded: totally accelerated
- levels of reduction of the FAS enzyme activity, C75 compared with AIM (FAS [1]): almost the same

B1: HA-AIM: AIM (mouse AIM) fused with an HA-tag (protein)
chain: ESPTKVQLVGGAHRCEGRVEVEHNGQWGTVCDDGWDRRDVAVVCRELNCGAVIQTPRGASYQPPASEQRVLIQGVDCNGTEDTLAQCELNYYVFDCSHEEDAGAQCENPDSDLLFIPEDVRLVDGPGHCQGRVEVLHQSQWSTVCKAGWNLQVSKVVCRQLGCGRALLTYGSCNKNTQGKGPIWMGKMSCSGQEANLRSCLLSRLENNCTHGEDTWMECEDPFELKLVGGDTPCSGRLEVLHKGSWGSVCDDNWGEKEDQVVCKQLGCGKSLHPSPKTRKIYGPGAGRIWLDDVNCSGKEQSLEFCRHRLWGYHDCTHKEDVEVICTDFDV
modifications: left off: small tags and cut ends
notes: AIM (mouse AIM) fused with an HA-tag
- co-precipitation with FLAG-tagged FAS (FAS [2]): co-precipitation
- co-precipitation with FLAG-tagged FAS (FAS [2]; listed as mouse AIM tagged with HA): co-precipitated mutually

B2: human AIM: protein consisting of the amino acid sequence shown in SEQ ID NO: 1; recombinant, purified from HEK293T culture supernatant (protein)
chain: MALLFSLILAICTRPGFLASPSGVRLVGGLHRCEGRVEVEQKGQWGTVCDDGWDIKDVAVLCRELGCGAASGTPSGILYEPPAEKEQKVLIQSVSCTGTEDTLAQCEQEEVYDCSHDEDAGASCENPESSFSPVPEGVRLADGPGHCKGRVEVKHQNQWYTVCQTGWSLRAAKVVCRQLGCGRAVLTQKRCNKHAYGRKPIWLSQMSCSGREATLQDCPSGPWGKNTCNHDEDTWVECEDPFDLRLVGGDNLCSGRLEVLHKGVWGSVCDDNWGEKEDQVVCKQLGCGKSLSPSFRDRKCYGPGVGRIWLDNVRCSGEEQSLEQCQHRFWGFHDCTHQEDVAVICSG
modifications: human
notes: recombinant, purified from HEK293T culture supernatant
- differentiation of 3T3-L1 cells derived from mice / differentiation inhibitory function (3T3-L1 preadipocytes): inhibited; also recorded: similarly exerted
- differentiation of HMSCs ([3]; rhAIM 10 μg/mL during 3 days adipogenesis induction, oil-red-o): dramatically inhibited
- mRNA level of Glut-4 ([3]; rhAIM 10 μg/mL, RT-PCR, compared with absence of rhAIM): remarkably decreased
- lipolysis induction function in adipocytes derived from mice [4]: similarly exerted

From patent publication US8591913B2, “Methods of decreasing adipose tissue” (Toru Miyazaki, priority 2009, dated 2013)
